{"source": "patent US6274553A", "about": "“Method for stabilizing peptides and freeze-dried medicinal compositions containing peptides obtained by using the method” (Japan Energy Corporation, priority 1997, dated 2001)", "molecules": {"B1": {"name": "hirudin variant HV1C3: Hirudin variant having the amino acid sequence shown by Sequence No. 1 (JP Laid-open No. 173798/1992) (protein)", "chain": "VVYTDCTESGQNLCLCEGSNVCGQGNKCILGSDGEKNQCVTGEGTPKPQSHNQGDFEPIPEDAYDE"}}, "key": {"[1]": {"test": "Amount of isomers in lyophilized HV1C3 stored at 60° C., saccharose/mannitol (Experiment Example 5)", "assay_type": "physicochemical", "details": "pH 5.5, 5 mM tartaric acid", "experimental": "In the same manner as in Experiment Example 1, hirudin variant HV1C3, purified saccharose, and mannitol were dissolved in purified water to a concentration of 6 mg/ml (0.86 mM) of hirudin variant HV1C3 and concentrations of purified saccharose and mannitol respectively shown in Table 6. The solution was adjusted to pH 5.5 using 5 mM tartaric acid to obtain a peptide solution. The peptide solutions for which the pH was adjusted and the peptide solution before pH adjustment were filtered through a 0.22 μm membrane filter. The filtrates were filled into 6 ml vials in the amount of 1 ml for each vial and lyophilized.\nThe lyophilized samples were stored in an incubator at 60° C. and removed from the incubator after 4 and 8 weeks, respectively. […] was added to each vial removed. Solutions further diluted 50-fold were subjected to liquid chromatography to measure a peak area percentage of isomers other than the hirudin variant HV1C3."}, "[2]": {"test": "Storage stability of lyophilized HV1C3 at 60° C., pH adjusting agents (Experiment Example 2)", "assay_type": "physicochemical", "details": "saccharose, mannitol", "experimental": "Hirudin variant HV1C3, purified saccharose, and mannitol were dissolved in purified water to a final concentration of 6 mg/ml (0.86 mM), 1.6 mg/ml (4.7 mM), and 10 mg/ml (55 mM), respectively. The resulting solution was divided into five equal portions. Four of these portions were adjusted to pH 5.5 with the addition of 30 mM of acetic acid, tartaric acid, citric acid, or phosphoric acid. The peptide solutions for which the pH was thus adjusted and the peptide solution without pH adjustment were filtered through a 0.22 μm membrane filter. The filtrates were filled into 6 ml vials in the amount of 1 ml for each vial. 50 such vials were prepared for each pH of the solution, 250 vials in total. All these 250 vials were lyophilized.\nThe lyophilized samples were stored in an incubator at 60° C. and removed from the incubator after 1, 2, 3, 4, 5, 6, 7, and 8 weeks, respectively. 1 ml of purified water was added to each vial removed. Solutions further diluted 50-fold were used to measure the amount (percentage) of the hirudin variant HV1C3 remaining in the lyophilized sample in the same manner as in Experiment Example 1."}, "[3]": {"details": "no saccharose, mannitol 10 mg/ml"}, "[4]": {"details": "purified saccharose 1.6 mg/ml, mannitol 10 mg/ml"}, "[5]": {"details": "purified saccharose 1.6 mg/ml, no mannitol"}}, "data": [{"molecule": "B1", "values": [{"measurement": "The amount of isomers (%) 4 weeks", "setting": "[1]; [3]", "value": 6.93, "unit": "%"}, {"measurement": "The amount of isomers (%) 8 weeks", "setting": "[1]; [3]", "value": 7.99, "unit": "%"}, {"measurement": "The amount of isomers (%) 4 weeks", "setting": "[1]; no saccharose, no mannitol", "value": 5.72, "unit": "%"}, {"measurement": "The amount of isomers (%) 8 weeks", "setting": "[1]; no saccharose, no mannitol", "value": 6.13, "unit": "%"}, {"measurement": "The amount of isomers (%) 4 weeks", "setting": "[1]; [4]", "value": 7.23, "unit": "%"}, {"measurement": "The amount of isomers (%) 8 weeks", "setting": "[1]; [4]", "value": 8.58, "unit": "%"}, {"measurement": "The amount of isomers (%) 4 weeks", "setting": "[1]; [5]", "value": 4.90, "unit": "%"}, {"measurement": "The amount of isomers (%) 8 weeks", "setting": "[1]; [5]", "value": 5.00, "unit": "%"}, {"measurement": "Remaining peptide (%) 1 wk", "setting": "[2]; pH 5.5, acetic acid 30 mM", "value": 98.3, "unit": "%"}, {"measurement": "Remaining peptide (%) 2 wks", "setting": "[2]; pH 5.5, acetic acid 30 mM", "value": 95.6, "unit": "%"}, {"measurement": "Remaining peptide (%) 3 wks", "setting": "[2]; pH 5.5, acetic acid 30 mM", "value": 94.2, "unit": "%"}, {"measurement": "Remaining peptide (%) 4 wks", "setting": "[2]; pH 5.5, acetic acid 30 mM", "value": 93.3, "unit": "%"}, {"measurement": "Remaining peptide (%) 5 wks", "setting": "[2]; pH 5.5, acetic acid 30 mM", "value": 92.0, "unit": "%"}, {"measurement": "Remaining peptide (%) 6 wks", "setting": "[2]; pH 5.5, acetic acid 30 mM", "value": 91.9, "unit": "%"}, {"measurement": "Remaining peptide (%) 7 wks", "setting": "[2]; pH 5.5, acetic acid 30 mM", "value": 91.4, "unit": "%"}, {"measurement": "Remaining peptide (%) 8 wks", "setting": "[2]; pH 5.5, acetic acid 30 mM", "value": 90.6, "unit": "%"}, {"measurement": "Remaining peptide (%) 1 wk", "setting": "[2]; pH 5.5, citric acid 30 mM", "value": 97.4, "unit": "%"}, {"measurement": "Remaining peptide (%) 2 wks", "setting": "[2]; pH 5.5, citric acid 30 mM", "value": 95.8, "unit": "%"}, {"measurement": "Remaining peptide (%) 3 wks", "setting": "[2]; pH 5.5, citric acid 30 mM", "value": 94.4, "unit": "%"}, {"measurement": "Remaining peptide (%) 4 wks", "setting": "[2]; pH 5.5, citric acid 30 mM", "value": 93.3, "unit": "%"}, {"measurement": "Remaining peptide (%) 5 wks", "setting": "[2]; pH 5.5, citric acid 30 mM", "value": 92.4, "unit": "%"}, {"measurement": "Remaining peptide (%) 6 wks", "setting": "[2]; pH 5.5, citric acid 30 mM", "value": 91.6, "unit": "%"}, {"measurement": "Remaining peptide (%) 7 wks", "setting": "[2]; pH 5.5, citric acid 30 mM", "value": 90.8, "unit": "%"}, {"measurement": "Remaining peptide (%) 8 wks", "setting": "[2]; pH 5.5, citric acid 30 mM", "value": 89.8, "unit": "%"}, {"measurement": "Remaining peptide (%) 1 wk", "setting": "[2]; pH 5.5, phosphoric acid 30 mM", "value": 77.9, "unit": "%"}, {"measurement": "Remaining peptide (%) 2 wks", "setting": "[2]; pH 5.5, phosphoric acid 30 mM", "value": 66.6, "unit": "%"}, {"measurement": "Remaining peptide (%) 3 wks", "setting": "[2]; pH 5.5, phosphoric acid 30 mM", "value": 61.4, "unit": "%"}, {"measurement": "Remaining peptide (%) 4 wks", "setting": "[2]; pH 5.5, phosphoric acid 30 mM", "value": 58.1, "unit": "%"}, {"measurement": "Remaining peptide (%) 5 wks", "setting": "[2]; pH 5.5, phosphoric acid 30 mM", "value": 57.3, "unit": "%"}, {"measurement": "Remaining peptide (%) 6 wks", "setting": "[2]; pH 5.5, phosphoric acid 30 mM", "value": 57.6, "unit": "%"}, {"measurement": "Remaining peptide (%) 1 wk", "setting": "[2]; pH 5.5, tartaric acid 30 mM", "value": 98.4, "unit": "%"}, {"measurement": "Remaining peptide (%) 2 wks", "setting": "[2]; pH 5.5, tartaric acid 30 mM", "value": 97.6, "unit": "%"}, {"measurement": "Remaining peptide (%) 3 wks", "setting": "[2]; pH 5.5, tartaric acid 30 mM", "value": 95.9, "unit": "%"}, {"measurement": "Remaining peptide (%) 4 wks", "setting": "[2]; pH 5.5, tartaric acid 30 mM", "value": 95.2, "unit": "%"}, {"measurement": "Remaining peptide (%) 5 wks", "setting": "[2]; pH 5.5, tartaric acid 30 mM", "value": 92.4, "unit": "%"}, {"measurement": "Remaining peptide (%) 6 wks", "setting": "[2]; pH 5.5, tartaric acid 30 mM", "value": 92.2, "unit": "%"}, {"measurement": "Remaining peptide (%) 7 wks", "setting": "[2]; pH 5.5, tartaric acid 30 mM", "value": 91.9, "unit": "%"}, {"measurement": "Remaining peptide (%) 8 wks", "setting": "[2]; pH 5.5, tartaric acid 30 mM", "value": 90.6, "unit": "%"}, {"measurement": "Remaining peptide (%) 1 wk", "setting": "[2]; without pH adjustment", "value": 96.9, "unit": "%"}, {"measurement": "Remaining peptide (%) 2 wks", "setting": "[2]; without pH adjustment", "value": 94.2, "unit": "%"}, {"measurement": "Remaining peptide (%) 3 wks", "setting": "[2]; without pH adjustment", "value": 92.3, "unit": "%"}, {"measurement": "Remaining peptide (%) 4 wks", "setting": "[2]; without pH adjustment", "value": 90.9, "unit": "%"}, {"measurement": "Remaining peptide (%) 5 wks", "setting": "[2]; without pH adjustment", "value": 89.9, "unit": "%"}, {"measurement": "Remaining peptide (%) 6 wks", "setting": "[2]; without pH adjustment", "value": 88.2, "unit": "%"}, {"measurement": "Remaining peptide (%) 7 wks", "setting": "[2]; without pH adjustment", "value": 87.2, "unit": "%"}, {"measurement": "Remaining peptide (%) 8 wks", "setting": "[2]; without pH adjustment", "value": 86.1, "unit": "%"}]}]}
